According to PMC5023487 (Traffic (Copenhagen, Denmark), 2016):
“And” between values parts separate entries of the source, which are not always exact repeats. Equal values may be shown once.

Biological target: the molecule itself
Assay: SEC

B1: Recombinant His6-Sec18p (enzyme, S. cerevisiae, UniProt P18759 1-758, looked up)
chain: MFKIPGFGKAAANHTPPDMTNMDTRTRHLKVSNCPNNSYALANVAAVSPNDFPNNIYIIIDNLFVFTTRHSNDIPPGTIGFNGNQRTWGGWSLNQDVQAKAFDLFKYSGKQSYLGSIDIDISFRARGKAVSTVFDQDELAKQFVRCYESQIFSPTQYLIMEFQGHFFDLKIRNVQAIDLGDIEPTSAVATGIETKGILTKQTQINFFKGRDGLVNLKSSNSLRPRSNAVIRPDFKFEDLGVGGLDKEFTKIFRRAFASRIFPPSVIEKLGISHVKGLLLYGPPGTGKTLIARKIGTMLNAKEPKIVNGPEILSKYVGSSEENIRNLFKDAEAEYRAKGEESSLHIIIFDELDSVFKQRGSRGDGTGVGDNVVNQLLAKMDGVDQLNNILVIGMTNRKDLIDSALLRPGRFEVQVEIHLPDEKGRLQIFDIQTKKMRENNMMSDDVNLAELAALTKNFSGAEIEGLVKSASSFAINKTVNIGKGATKLNTKDIAKLKVTREDFLNALNDVTPAFGISEEDLKTCVEGGMMLYSERVNSILKNGARYVRQVRESDKSRLVSLLIHGPAGSGKTALAAEIALKSGFPFIRLISPNELSGMSESAKIAYIDNTFRDAYKSPLNILVIDSLETLVDWVPIGPRFSNNILQMLKVALKRKPPQDRRLLIMTTTSAYSVLQQMDILSCFDNEIAVPNMTNLDELNNVMIESNFLDDAGRVKVINELSRSCPNFNVGIKKTLTNIETARHDEDPVNELVELMTQSA
stoichiometry N: 6 and 2
